Assay results published in patent publication US9949464.

Target: green fluorescent protein (GFP), EGFP expressed from pCAG-GFP [GFP: P42212]
Experiment: cell-based or functional assay

induction of recombination of a floxed luciferase reporter in 293T cells: 20 to 60 fold
Substance: CRE-DOG (Cre-recombinase Dependent on GFP), GBP2+GBP7 combination: N-CreintG with C-CreintG
